From publication PMC3401642

Key:
[1] = molecular target: HIV-1 subtype C Env clone Du151.2 V295N (HIV-1 subtype C)
[2] = molecular target: HIV-1 subtype C Env clone COT9.6 V295N (HIV-1 subtype C)
[3] = molecular target: HIV-1 subtype C Env clone COT6.15 V295N (HIV-1 subtype C)
[4] = molecular target: HIV-1 subtype C envelope glycoprotein (Env, gp160) clone CAP177.cvl96 (HIV-1 subtype C)
[5] = molecular target: HIV-1 subtype B envelope glycoprotein (Env, gp160) clone THRO4156.18 (HIV-1 subtype B)
[6] = molecular target: HIV-1 subtype C envelope glycoprotein (Env, gp160) clone CAP63.A9J (HIV-1 subtype C)
[7] = molecular target: HIV-1 subtype C envelope glycoprotein (Env, gp160) clone COT9.6 (HIV-1 subtype C)
[8] = molecular target: HIV-1 subtype C envelope glycoprotein (Env, gp160) clone COT6.15 (HIV-1 subtype C)
[9] = molecular target: HIV-1 subtype C envelope glycoprotein (Env, gp160) clone CAP261.cvl93 (HIV-1 subtype C)
[10] = molecular target: HIV-1 subtype C envelope glycoprotein (Env, gp160) clone CAP63.cvl6GA (HIV-1 subtype C)
[11] = molecular target: HIV-1 subtype A envelope glycoprotein (Env) clone Q461.e2 (HIV-1 subtype A)
[12] = molecular target: HIV-1 subtype B envelope glycoprotein (Env, gp160) clone CAAN5342.A2 (HIV-1 subtype B)
[13] = molecular target: HIV-1 subtype A envelope glycoprotein (Env) clone Q23.17 (HIV-1 subtype A)
[14] = molecular target: HIV-1 subtype C envelope glycoprotein (Env, gp160) clone CAP206.08J (HIV-1 subtype C)
[15] = molecular target: HIV-1 subtype C envelope glycoprotein (Env, gp160) clone Du151.2 (HIV-1 subtype C)
[16] = molecular target: HIV-1 subtype C envelope glycoprotein (Env, gp160) clone CAP210.E8J (HIV-1 subtype C)
[17] = molecular target: HIV-1 subtype C envelope glycoprotein (Env, gp160) clone CAP270.cvl44 (HIV-1 subtype C)
[18] = molecular target: HIV-1 subtype A envelope glycoprotein (Env) clone Q168.a2 (HIV-1 subtype A)
[19] = molecular target: HIV-1 subtype A envelope glycoprotein (Env) clone 92RW009 (HIV-1 subtype A)
[20] = molecular target: HIV-1 subtype C envelope glycoprotein (Env, gp160) clone CAP228.51J (HIV-1 subtype C)
[21] = molecular target: HIV-1 subtype B envelope glycoprotein (Env, gp160) clone QH0692.42 (HIV-1 subtype B)
[22] = molecular target: HIV-1 subtype C envelope glycoprotein (Env, gp160) clone RP6.6 (HIV-1 subtype C)
[23] = molecular target: HIV-1 subtype C envelope glycoprotein (Env, gp160) clone CAP45.G3J (HIV-1 subtype C)
[24] = molecular target: HIV-1 subtype B envelope glycoprotein (Env, gp160) clone PVO.4 (HIV-1 subtype B)
[25] = molecular target: HIV-1 subtype B envelope glycoprotein (Env, gp160) clone AC10.0.29 (HIV-1 subtype B)
[26] = molecular target: HIV-1 subtype A envelope glycoprotein (Env) clone Q842.d12 (HIV-1 subtype A)
[27] = molecular target: HIV-1 subtype C envelope glycoprotein (Env, gp160) clone TM7.9 (HIV-1 subtype C)
[28] = molecular target: HIV-1 subtype B envelope glycoprotein (Env, gp160) clone WITO4160.33 (HIV-1 subtype B)
[29] = molecular target: HIV-1 subtype C envelope glycoprotein (Env, gp160) clone CAP256.F7J (HIV-1 subtype C)

**Q.** With “Griffithsin (from UniProt P84801 1-121) (natural protein)” as the molecule, how does the IC50 of neutralisation of Env-pseudotyped virus (TZM-bl assay) [1] read?
**A.** 0.03 nM

**Q.** What about the IC50 of neutralisation of Env-pseudotyped virus (TZM-bl assay) [2] of the same molecule?
**A.** 0.06 nM

**Q.** What about the IC50 of neutralisation of Env-pseudotyped virus (TZM-bl assay) [3] of the same molecule?
**A.** 0.06 nM

**Q.** What about the IC50 of neutralisation of Env-pseudotyped virus (TZM-bl assay) [4] of the same molecule?
**A.** 55.9 nM

**Q.** And the IC50 of neutralisation of Env-pseudotyped virus (TZM-bl assay) [5]?
**A.** 1.2 nM

**Q.** And the IC50 of neutralisation of Env-pseudotyped virus (TZM-bl assay) [6]?
**A.** 23.2 nM

**Q.** And the IC50 of neutralisation of Env-pseudotyped virus (TZM-bl assay) [7]?
**A.** 1.2 nM

**Q.** And the IC50 of neutralisation of Env-pseudotyped virus (TZM-bl assay) [8]?
**A.** 0.4 nM

**Q.** And the IC50 of neutralisation of Env-pseudotyped virus (TZM-bl assay) [9]?
**A.** 4.2 nM

**Q.** And the IC50 of neutralisation of Env-pseudotyped virus (TZM-bl assay) [10]?
**A.** 25.7 nM

**Q.** What about the IC50 of neutralisation of Env-pseudotyped virus (TZM-bl assay) [11] of the same molecule?
**A.** 0.12 nM

**Q.** What about the IC50 of neutralisation of Env-pseudotyped virus (TZM-bl assay) [12] of the same molecule?
**A.** 11.7 nM

**Q.** What about the IC50 of neutralisation of Env-pseudotyped virus (TZM-bl assay) [13] of the same molecule?
**A.** 1.9 nM

**Q.** And the IC50 of neutralisation of Env-pseudotyped virus (TZM-bl assay) [14]?
**A.** 30.9 nM

**Q.** And the IC50 of neutralisation of Env-pseudotyped virus (TZM-bl assay) [15]?
**A.** 1.5 nM

**Q.** And the IC50 of neutralisation of Env-pseudotyped virus (TZM-bl assay) [16]?
**A.** 0.2 nM

**Q.** And the IC50 of neutralisation of Env-pseudotyped virus (TZM-bl assay) [17]?
**A.** 0.3 nM

**Q.** What about the IC50 of neutralisation of Env-pseudotyped virus (TZM-bl assay) [18] of the same molecule?
**A.** 3.3 nM

**Q.** What about the IC50 of neutralisation of Env-pseudotyped virus (TZM-bl assay) [19] of the same molecule?
**A.** 1.8 nM

**Q.** For “Scytovirin (from UniProt P86041 1-95) (natural protein)”, which IC50 of neutralisation of Env-pseudotyped virus (TZM-bl assay) [1] is on record?
**A.** 32.5 nM

**Q.** What about the IC50 of neutralisation of Env-pseudotyped virus (TZM-bl assay) [2] of the same molecule?
**A.** 63 nM

**Q.** And the IC50 of neutralisation of Env-pseudotyped virus (TZM-bl assay) [3]?
**A.** 16.1 nM

**Q.** And the IC50 of neutralisation of Env-pseudotyped virus (TZM-bl assay) [4]?
**A.** 21.8 nM

**Q.** What about the IC50 of neutralisation of Env-pseudotyped virus (TZM-bl assay) [20] of the same molecule?
**A.** 20.1 nM

**Q.** And the IC50 of neutralisation of Env-pseudotyped virus (TZM-bl assay) [21]?
**A.** 27.3 nM

**Q.** What about the IC50 of neutralisation of Env-pseudotyped virus (TZM-bl assay) [22] of the same molecule?
**A.** 11.3 nM

**Q.** And the IC50 of neutralisation of Env-pseudotyped virus (TZM-bl assay) [5]?
**A.** 42.6 nM

**Q.** What about the IC50 of neutralisation of Env-pseudotyped virus (TZM-bl assay) [6] of the same molecule?
**A.** 29.8 nM

**Q.** And the IC50 of neutralisation of Env-pseudotyped virus (TZM-bl assay) [23]?
**A.** 16.9 nM

**Q.** What about the IC50 of neutralisation of Env-pseudotyped virus (TZM-bl assay) [7] of the same molecule?
**A.** 57.6 nM

**Q.** And the IC50 of neutralisation of Env-pseudotyped virus (TZM-bl assay) [8]?
**A.** 10.8 nM

**Q.** And the IC50 of neutralisation of Env-pseudotyped virus (TZM-bl assay) [24]?
**A.** 25.2 nM

**Q.** What about the IC50 of neutralisation of Env-pseudotyped virus (TZM-bl assay) [9] of the same molecule?
**A.** 6.2 nM

**Q.** What about the IC50 of neutralisation of Env-pseudotyped virus (TZM-bl assay) [10] of the same molecule?
**A.** 43.8 nM

**Q.** And the IC50 of neutralisation of Env-pseudotyped virus (TZM-bl assay) [11]?
**A.** 18.9 nM

**Q.** And the IC50 of neutralisation of Env-pseudotyped virus (TZM-bl assay) [25]?
**A.** 24.5 nM

**Q.** What about the IC50 of neutralisation of Env-pseudotyped virus (TZM-bl assay) [26] of the same molecule?
**A.** 40.9 nM

**Q.** What about the IC50 of neutralisation of Env-pseudotyped virus (TZM-bl assay) [12] of the same molecule?
**A.** 188 nM

**Q.** What about the IC50 of neutralisation of Env-pseudotyped virus (TZM-bl assay) [13] of the same molecule?
**A.** 29.8 nM

**Q.** And the IC50 of neutralisation of Env-pseudotyped virus (TZM-bl assay) [27]?
**A.** 12.1 nM

**Q.** And the IC50 of neutralisation of Env-pseudotyped virus (TZM-bl assay) [14]?
**A.** 113 nM

**Q.** And the IC50 of neutralisation of Env-pseudotyped virus (TZM-bl assay) [15]?
**A.** 27.5 nM

**Q.** And the IC50 of neutralisation of Env-pseudotyped virus (TZM-bl assay) [28]?
**A.** 24.8 nM

**Q.** And the IC50 of neutralisation of Env-pseudotyped virus (TZM-bl assay) [16]?
**A.** 33.1 nM

**Q.** And the IC50 of neutralisation of Env-pseudotyped virus (TZM-bl assay) [17]?
**A.** 11.7 nM

**Q.** What about the IC50 of neutralisation of Env-pseudotyped virus (TZM-bl assay) [18] of the same molecule?
**A.** 9.4 nM

**Q.** And the IC50 of neutralisation of Env-pseudotyped virus (TZM-bl assay) [29]?
**A.** 6.7 nM

**Q.** And the IC50 of neutralisation of Env-pseudotyped virus (TZM-bl assay) [19]?
**A.** 21.8 nM

B1: Cyanovirin-N (natural protein)
chain: LGKFSQTCYNSAIQGSVLTSTCERTNGGYNTSSIDLNSVIENVDGSLKWQPSNFIETCRNTQLAGSSELAAECKTRAQQFVSTKINLDDHIANIDGTLKYE
**Q.** What does the source list for B1?
**A.** IC50 of neutralisation of Env-pseudotyped virus (TZM-bl assay) [1]: 1.2 nM; IC50 of neutralisation of Env-pseudotyped virus (TZM-bl assay) [2]: 4.4 nM; IC50 of neutralisation of Env-pseudotyped virus (TZM-bl assay) [3]: 1.1 nM; IC50 of neutralisation of Env-pseudotyped virus (TZM-bl assay) [4]: 7.5 nM; IC50 of neutralisation of Env-pseudotyped virus (TZM-bl assay) [20]: 3.1 nM; IC50 of neutralisation of Env-pseudotyped virus (TZM-bl assay) [21]: 2.5 nM; IC50 of neutralisation of Env-pseudotyped virus (TZM-bl assay) [22]: 1.1 nM; IC50 of neutralisation of Env-pseudotyped virus (TZM-bl assay) [6]: 1.8 nM; IC50 of neutralisation of Env-pseudotyped virus (TZM-bl assay) [7]: 3.9 nM; IC50 of neutralisation of Env-pseudotyped virus (TZM-bl assay) [8]: 0.9 nM; IC50 of neutralisation of Env-pseudotyped virus (TZM-bl assay) [9]: 1.8 nM; IC50 of neutralisation of Env-pseudotyped virus (TZM-bl assay) [10]: 3.1 nM; IC50 of neutralisation of Env-pseudotyped virus (TZM-bl assay) [11]: 1.2 nM; IC50 of neutralisation of Env-pseudotyped virus (TZM-bl assay) [25]: 0.3 nM; IC50 of neutralisation of Env-pseudotyped virus (TZM-bl assay) [26]: 2.5 nM; IC50 of neutralisation of Env-pseudotyped virus (TZM-bl assay) [12]: 16.7 nM; IC50 of neutralisation of Env-pseudotyped virus (TZM-bl assay) [13]: 3 nM; IC50 of neutralisation of Env-pseudotyped virus (TZM-bl assay) [27]: 1.1 nM; IC50 of neutralisation of Env-pseudotyped virus (TZM-bl assay) [14]: 18 nM; IC50 of neutralisation of Env-pseudotyped virus (TZM-bl assay) [15]: 2 nM; IC50 of neutralisation of Env-pseudotyped virus (TZM-bl assay) [28]: 1.5 nM; IC50 of neutralisation of Env-pseudotyped virus (TZM-bl assay) [16]: 1.2 nM; IC50 of neutralisation of Env-pseudotyped virus (TZM-bl assay) [18]: 1.4 nM; IC50 of neutralisation of Env-pseudotyped virus (TZM-bl assay) [29]: 1.1 nM; IC50 of neutralisation of Env-pseudotyped virus (TZM-bl assay) [19]: 1.2 nM
